Data as given in paper PMC9371921, “Strand annealing and motor driven activities of SMARCAL1 and ZRANB3 are stimulated by RAD51 and the paralog complex” (Nucleic Acids Research, 2022).

Target: T1, RAD51B;RAD51C;RAD51D;XRCC2 (Homo sapiens;Homo sapiens;Homo …, UniProt O15315;O43502;O75771;O43543 1-384;1-376;1-328;1-280, |||)
T1 sequence 1: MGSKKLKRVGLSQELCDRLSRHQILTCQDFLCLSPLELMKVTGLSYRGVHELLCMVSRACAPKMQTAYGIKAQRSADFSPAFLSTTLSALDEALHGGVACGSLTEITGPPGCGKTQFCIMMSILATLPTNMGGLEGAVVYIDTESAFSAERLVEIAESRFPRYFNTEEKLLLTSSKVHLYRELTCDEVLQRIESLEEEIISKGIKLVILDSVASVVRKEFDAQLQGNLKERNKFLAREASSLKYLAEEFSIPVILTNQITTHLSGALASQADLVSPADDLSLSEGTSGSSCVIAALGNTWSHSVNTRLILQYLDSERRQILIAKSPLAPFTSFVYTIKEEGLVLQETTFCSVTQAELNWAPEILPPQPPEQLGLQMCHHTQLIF
T1 sequence 2: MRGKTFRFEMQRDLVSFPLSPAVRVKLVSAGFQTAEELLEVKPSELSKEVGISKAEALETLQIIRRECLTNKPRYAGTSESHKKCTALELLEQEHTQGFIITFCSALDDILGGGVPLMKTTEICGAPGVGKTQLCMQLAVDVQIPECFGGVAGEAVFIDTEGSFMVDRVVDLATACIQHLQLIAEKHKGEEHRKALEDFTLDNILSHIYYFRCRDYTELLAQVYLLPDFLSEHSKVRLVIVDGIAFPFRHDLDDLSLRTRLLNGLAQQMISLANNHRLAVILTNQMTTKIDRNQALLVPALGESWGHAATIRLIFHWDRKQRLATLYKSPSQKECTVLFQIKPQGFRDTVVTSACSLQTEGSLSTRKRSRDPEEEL
T1 sequence 3: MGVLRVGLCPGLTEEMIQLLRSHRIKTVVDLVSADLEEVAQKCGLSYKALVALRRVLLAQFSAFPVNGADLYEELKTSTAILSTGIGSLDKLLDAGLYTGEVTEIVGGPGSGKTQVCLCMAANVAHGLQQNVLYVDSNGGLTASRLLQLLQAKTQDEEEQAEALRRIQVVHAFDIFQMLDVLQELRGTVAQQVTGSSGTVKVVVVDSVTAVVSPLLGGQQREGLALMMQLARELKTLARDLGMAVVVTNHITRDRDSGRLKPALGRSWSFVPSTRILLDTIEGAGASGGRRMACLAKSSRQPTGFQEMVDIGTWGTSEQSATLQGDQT
T1 sequence 4: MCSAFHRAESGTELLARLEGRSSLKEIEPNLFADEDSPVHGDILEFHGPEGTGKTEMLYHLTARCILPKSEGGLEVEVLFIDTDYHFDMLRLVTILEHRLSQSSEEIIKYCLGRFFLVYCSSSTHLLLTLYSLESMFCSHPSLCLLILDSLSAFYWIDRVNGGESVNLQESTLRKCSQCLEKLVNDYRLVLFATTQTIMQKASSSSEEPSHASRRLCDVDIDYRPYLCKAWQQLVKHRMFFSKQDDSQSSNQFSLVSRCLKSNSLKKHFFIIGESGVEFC
Test: EMSA; 1 mM ATP, 1 mM Mg acetate; EMSA: 1 nM DNA, 20 mM Tris-acetate pH 7.5, 1 mM DTT, 1 mM magnesium acetate, 0.1 mg/ml BSA, 1 mM ATP, 30 min at 37 C; 6% PAGE in 1x TBE at 4 C
Details: protein: recombinant;recombinant;recombinant;recombinant; tags: FLAG;10xHis;none;none; copies: 1;1;1;1; label: 5'-32P

B1: 70-mer ssDNA (PC210) (ssDNA)
DNA: GTAAGTGCCGCGGTGCGGGTGCCAGGGCGTGCCCTTGGGCTCCCCGGGCGCGTACTCCACCTCATGCATC
B1: binds.
